From patent US20040219163 come the findings set out here.

The target of the series is prostate-specific antigen (PSA) (UniProt P07288).
Sequence of prostate-specific antigen (PSA) (P07288 25-261): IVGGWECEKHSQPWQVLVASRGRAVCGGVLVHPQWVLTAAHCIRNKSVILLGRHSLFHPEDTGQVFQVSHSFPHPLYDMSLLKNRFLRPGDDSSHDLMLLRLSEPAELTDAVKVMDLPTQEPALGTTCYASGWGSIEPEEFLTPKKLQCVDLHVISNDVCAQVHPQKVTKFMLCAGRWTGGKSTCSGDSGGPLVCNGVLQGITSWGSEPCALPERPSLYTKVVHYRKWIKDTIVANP

Human glandular kallikrein (hK2): the “PSA enzymatic activity on chromogenic substrate S-2586 (absorbance at 405 nm); 100 ng hK2 added to 2.5 ug PSA from L1/PSA/IL2 supernatant” value is reported as “The activity of PSA is increased 500% when incubated with hK2”.
